Results reported in doi:10.1101/2023.01.20.524748.

Molecular target: B.1.1.529 (BA.1) S1 + S2 Trimer-His Recombinant Protein (SARS-CoV-2) (UniProt P0DTC2)
Experiment: cryo-EM structure

## B.1.1.529 (BA.1) S1 + S2 Trimer-His Recombinant Protein (from UniProt P0DTC2 324-533) (natural protein)
  stoichiometry N: 3
